Experimental data published in patent CN107840891A.

The binders below were run against MSLN抗原 (Mesothelin, MSLN-Biotin) (human) (UniProt Q13421) (assay: BLI (Octet RED96), MSLN-Biotin on AR2G sensor, TG1 periplasmic scFv as analyte (表2.1)).
Chain of UniProt Q13421 (Q13421 296-606 limits assumed): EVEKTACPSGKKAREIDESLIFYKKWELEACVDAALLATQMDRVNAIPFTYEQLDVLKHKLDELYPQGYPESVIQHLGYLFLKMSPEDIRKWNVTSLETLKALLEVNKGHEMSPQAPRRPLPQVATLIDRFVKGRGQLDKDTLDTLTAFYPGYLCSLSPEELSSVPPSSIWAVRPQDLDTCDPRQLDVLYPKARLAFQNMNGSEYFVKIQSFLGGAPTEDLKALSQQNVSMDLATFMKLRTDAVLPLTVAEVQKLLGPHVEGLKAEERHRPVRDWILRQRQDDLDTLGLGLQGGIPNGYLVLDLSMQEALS

koff	响应	Binder
0.000164 s⁻¹	0.37	MN单链抗体 (scFv MN, wild type) (scFv, V domains shown) VH: QVQLQQPGAELVKPGASMKLSCKASGYTFTSYWMHWVKQRPGQGLEWIGMIHPNSDNTIYYEKFKSKATLTVDKSSSTAYMQLSSLTSEDSAVYYCAIIITPVVPKFDYWGQGTTLTVSS VL: DIVMTQSHQFMSTSVGDRVSVTCKASHDVGTSVAWYQQKPGQSPKLLIYWASTRHTGVPDRFTGSGSGTDFTLTISNVQSEDLADYFCQQYSSYPLTFGAGTKLELK

The binders below were run against MSLN抗原 (Mesothelin, MSLN-Biotin) (human) (UniProt Q13421) (assay: BLI (Octet RED96), MSLN-Biotin on AR2G sensor, TG1 periplasmic scFv as analyte).

Binder	koff	响应
2G8 (scFv, V domains shown) VH: QVQLQQPGAELVKPGASMKLSCKASGTQFANYRMHWVKQRPGQGLEWIGMIHPNSDNTIYYEKFKSKATLTVDKSSSTAYMQLSSLTSEDSAVYYCAIIITPVVPKFDYWGQGTTLTVSS VL: DIVMTQSHQFMSTSVGDRVSVTCKASHDVGTSVAWYQQKPGQSPKLLIYWASTRHTGVPDRFTGSGSGTDFTLTISNVQSEDLADYFCQQYSSYPLTFGAGTKLELK	0.00111 s⁻¹	1.11
2D9 (scFv, V domains shown) VH: QVQLQQPGAELVKPGASMKLSCKASGYTFTSYWMHWVKQRPGQGLEWIGMIHAQSDNTIYYEKFKSKATLTVDKSSSTAYMQLSSLTSEDSAVYYCAIIITPVVPKFDYWGQGTTLTVSS VL: DIVMTQSHQFMSTSVGDRVSVTCKASHDVGTSVAWYQQKPGQSPKLLIYWASTRHTGVPDRFTGSGSGTDFTLTISNVQSEDLADYFCQQYSSYPLTFGAGTKLELK	0.000217 s⁻¹	1.25
4C11 (scFv, V domains shown) VH: QVQLQQPGAELVKPGASMKLSCKASGYTFTSYWMHWVKQRPGQGLEWIGMIHLNSAQTIYYEKFKSKATLTVDKSSSTAYMQLSSLTSEDSAVYYCAIIITPVVPKFDYWGQGTTLTVSS VL: DIVMTQSHQFMSTSVGDRVSVTCKASHDVGTSVAWYQQKPGQSPKLLIYWASTRHTGVPDRFTGSGSGTDFTLTISNVQSEDLADYFCQQYSSYPLTFGAGTKLELK	0.000133 s⁻¹	1.16
4A12 (scFv, V domains shown) VH: QVQLQQPGAELVKPGASMKLSCKASGYTFTSYWMHWVKQRPGQGLEWIGMIHPNSDNTIYYEKFKSKATLTVDKSSSTAYMQLSSLTSEDSAVYYCAIVILPFLPKFDYWGQGTTLTVSS VL: DIVMTQSHQFMSTSVGDRVSVTCKASHDVGTSVAWYQQKPGQSPKLLIYWASTRHTGVPDRFTGSGSGTDFTLTISNVQSEDLADYFCQQYSSYPLTFGAGTKLELK	0.0001 s⁻¹	0.91
2F9 (scFv, V domains shown) VH: QVQLQQPGAELVKPGASMKLSCKASGYTFTSYWMHWVKQRPGQGLEWIGGIEQNSSETIYYEKFKSKATLTVDKSSSTAYMQLSSLTSEDSAVYYCAIIITPVVPKFDYWGQGTTLTVSS VL: DIVMTQSHQFMSTSVGDRVSVTCKASHDVGTSVAWYQQKPGQSPKLLIYWASTRHTGVPDRFTGSGSGTDFTLTISNVQSEDLADYFCQQYSSYPLTFGAGTKLELK	0.00166 s⁻¹	0.13
4D7 (scFv, V domains shown) VH: QVQLQQPGAELVKPGASMKLSCKASGYTFTSYWMHWVKQRPGQGLEWIGMIHPNSDNTIYYEKFKSKATLTVDKSSSTAYMQLSSLTSEDSAVYYCAITISPVVPKFDYWGQGTTLTVSS VL: DIVMTQSHQFMSTSVGDRVSVTCKASHDVGTSVAWYQQKPGQSPKLLIYWASTRHTGVPDRFTGSGSGTDFTLTISNVQSEDLADYFCQQYSSYPLTFGAGTKLELK	0.000321 s⁻¹	0.96
3E12 (scFv, V domains shown) VH: QVQLQQPGAELVKPGASMKLSCKASGYTFTSYWMHWVKQRPGQGLEWIGMINLVSSRTIYYEKFKSKATLTVDKSSSTAYMQLSSLTSEDSAVYYCAIIITPVVPKFDYWGQGTTLTVSS VL: DIVMTQSHQFMSTSVGDRVSVTCKASHDVGTSVAWYQQKPGQSPKLLIYWASTRHTGVPDRFTGSGSGTDFTLTISNVQSEDLADYFCQQYSSYPLTFGAGTKLELK	9.73e-05 s⁻¹	1.04
3F9 (scFv, V domains shown) VH: QVQLQQPGAELVKPGASMKLSCKASGYTFTSYWMHWVKQRPGQGLEWIGMIHPNSQNTIYYEKFKSKATLTVDKSSSTAYMQLSSLTSEDSAVYYCAIIITPVVPKFDYWGQGTTLTVSS VL: DIVMTQSHQFMSTSVGDRVSVTCKASHDVGTSVAWYQQKPGQSPKLLIYWASTRHTGVPDRFTGSGSGTDFTLTISNVQSEDLADYFCQQYSSYPLTFGAGTKLELK	0.000164 s⁻¹	1.38

Other lines, results leading:

koff	响应	Binder
0.000401 s⁻¹	1.02	7E10 (scFv, V domains shown) VH: QVQLQQPGAELVKPGASMKLSCKASGYTFTSYWMHWVKQRPGQGLEWIGMIHPNSDNTIYYEKFKSKATLTVDKSSSTAYMQLSSLTSEDSAVYYCAIIITPVVPKFDYWGQGTTLTVSS VL: DIVMTQSHQFMSTSVGDRVSVTCKASHDVGTSVAWYQQKPGQSPKLLIYNASSRGGGVPDRFTGSGSGTDFTLTISNVQSEDLADYFCQQYSSYPLTFGAGTKLELK
0.000613 s⁻¹	0.73	5F7 (scFv, V domains shown) VH: QVQLQQPGAELVKPGASMKLSCKASGYTFTSYWMHWVKQRPGQGLEWIGMIHPNSDNTIYYEKFKSKATLTVDKSSSTAYMQLSSLTSEDSAVYYCAIIITPVVPKFDYWGQGTTLTVSS VL: DIVMTQSHQFMSTSVGDRVSVTCKASHDVGTSVAWYQQKPGQSPKLLIYWASTRHTGVPDRFTGSGSGTDFTLTISNVQSEDLADYFCQQYASYPLSFGAGTKLELK
0.000294 s⁻¹	0.97	9F5 (scFv, V domains shown) VH: QVQLQQPGAELVKPGASMKLSCKASGYTFTSYWMHWVKQRPGQGLEWIGMIHPNSDNTIYYEKFKSKATLTVDKSSSTAYMQLSSLTSEDSAVYYCAIIITPVVPKFDYWGQGTTLTVSS VL: DIVMTQSHQFMSTSVGDRVSVTCKASHDVGTSVAWYQQKPGQSPKLLIYQASKKEKGVPDRFTGSGSGTDFTLTISNVQSEDLADYFCQQYSSYPLTFGAGTKLELK
0.000356 s⁻¹	0.93	8C9 (scFv, V domains shown) VH: QVQLQQPGAELVKPGASMKLSCKASGYTFTSYWMHWVKQRPGQGLEWIGMIHPNSDNTIYYEKFKSKATLTVDKSSSTAYMQLSSLTSEDSAVYYCAIIITPVVPKFDYWGQGTTLTVSS VL: DIVMTQSHQFMSTSVGDRVSVTCMASHDVGTSVAWYQQKPGQSPKLLIYWASTRHTGVPDRFTGSGSGTDFTLTISNVQSEDLADYFCQQYSSYPLTFGAGTKLELK
0.000395 s⁻¹	0.94	7D5 (scFv, V domains shown) VH: QVQLQQPGAELVKPGASMKLSCKASGYTFTSYWMHWVKQRPGQGLEWIGMIHPNSDNTIYYEKFKSKATLTVDKSSSTAYMQLSSLTSEDSAVYYCAIIITPVVPKFDYWGQGTTLTVSS VL: DIVMTQSHQFMSTSVGDRVSVTCKASHDVGTSVAWYQQKPGQSPKLLIYKASNNKKGVPDRFTGSGSGTDFTLTISNVQSEDLADYFCQQYSSYPLTFGAGTKLELK

Each binder was assayed against MSLN抗原 (Mesothelin, MSLN-Biotin) (human) (UniProt Q13421) (assay: BLI (Octet RED96), MSLN-Biotin on AR2G sensor, TG1 periplasmic scFv as analyte (表2.2)).

koff	响应	Binder
0.000221 s⁻¹	0.38	MN单链抗体 (scFv MN, wild type) (scFv, V domains shown) VH: QVQLQQPGAELVKPGASMKLSCKASGYTFTSYWMHWVKQRPGQGLEWIGMIHPNSDNTIYYEKFKSKATLTVDKSSSTAYMQLSSLTSEDSAVYYCAIIITPVVPKFDYWGQGTTLTVSS VL: DIVMTQSHQFMSTSVGDRVSVTCKASHDVGTSVAWYQQKPGQSPKLLIYWASTRHTGVPDRFTGSGSGTDFTLTISNVQSEDLADYFCQQYSSYPLTFGAGTKLELK

These binders were tested against MSLN抗原 (Mesothelin, MSLN-Biotin) (human) (UniProt Q13421) (assay: BLI (Octet RED96), MSLN-Biotin on AR2G sensor, TG1 periplasmic scFv as analyte (表2.4)).

koff	响应	Binder
0.000188 s⁻¹	0.37	MN单链抗体 (scFv MN, wild type) (scFv, V domains shown) VH: QVQLQQPGAELVKPGASMKLSCKASGYTFTSYWMHWVKQRPGQGLEWIGMIHPNSDNTIYYEKFKSKATLTVDKSSSTAYMQLSSLTSEDSAVYYCAIIITPVVPKFDYWGQGTTLTVSS VL: DIVMTQSHQFMSTSVGDRVSVTCKASHDVGTSVAWYQQKPGQSPKLLIYWASTRHTGVPDRFTGSGSGTDFTLTISNVQSEDLADYFCQQYSSYPLTFGAGTKLELK
